What all share (test): Kinase selectivity panel
Format in all cases: biochemical

One data set addresses T1, ERK8 (Homo sapiens, UniProt Q8TD08).
T1 sequence (Q8TD08 1-544): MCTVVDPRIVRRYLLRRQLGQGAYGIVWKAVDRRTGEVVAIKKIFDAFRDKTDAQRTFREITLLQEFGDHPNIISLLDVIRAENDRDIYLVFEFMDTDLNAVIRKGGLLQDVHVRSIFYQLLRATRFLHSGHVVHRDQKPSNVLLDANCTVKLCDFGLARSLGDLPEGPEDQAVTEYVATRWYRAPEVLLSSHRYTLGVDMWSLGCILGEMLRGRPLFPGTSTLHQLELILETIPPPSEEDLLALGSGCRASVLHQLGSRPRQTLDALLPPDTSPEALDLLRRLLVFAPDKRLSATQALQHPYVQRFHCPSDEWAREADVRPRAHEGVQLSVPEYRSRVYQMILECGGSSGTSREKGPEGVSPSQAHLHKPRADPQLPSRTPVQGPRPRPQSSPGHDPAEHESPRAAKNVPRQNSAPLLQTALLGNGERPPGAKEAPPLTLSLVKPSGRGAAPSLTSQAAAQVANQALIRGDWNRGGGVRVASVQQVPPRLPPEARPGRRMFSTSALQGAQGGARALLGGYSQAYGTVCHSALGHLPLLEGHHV
The note with it: read-out: residual activity (%) ERK8. Here is the method: (§1) The panel of kinases included all 52 kinases available for testing.
(§2) The assay of protein kinases was performed at 30° C. as described previously [Davies et al., Biochem. J. 351 (2000) 95; Murray et al., Biochem. J. 384 (2004) 477].

The next data set has as its target MKK1 (Homo sapiens, UniProt Q02750). As to conditions: read-out: residual activity (%) MKK1. Here is the method: as §1, §2
A further data set has as its target MARK3 (Homo sapiens, UniProt P27448). As to conditions: read-out: residual activity (%) MARK3. Here is the method: as §1, §2
The next data set addresses T2, MST2 (Homo sapiens, UniProt Q13188).
T2 sequence (Q13188 1-491): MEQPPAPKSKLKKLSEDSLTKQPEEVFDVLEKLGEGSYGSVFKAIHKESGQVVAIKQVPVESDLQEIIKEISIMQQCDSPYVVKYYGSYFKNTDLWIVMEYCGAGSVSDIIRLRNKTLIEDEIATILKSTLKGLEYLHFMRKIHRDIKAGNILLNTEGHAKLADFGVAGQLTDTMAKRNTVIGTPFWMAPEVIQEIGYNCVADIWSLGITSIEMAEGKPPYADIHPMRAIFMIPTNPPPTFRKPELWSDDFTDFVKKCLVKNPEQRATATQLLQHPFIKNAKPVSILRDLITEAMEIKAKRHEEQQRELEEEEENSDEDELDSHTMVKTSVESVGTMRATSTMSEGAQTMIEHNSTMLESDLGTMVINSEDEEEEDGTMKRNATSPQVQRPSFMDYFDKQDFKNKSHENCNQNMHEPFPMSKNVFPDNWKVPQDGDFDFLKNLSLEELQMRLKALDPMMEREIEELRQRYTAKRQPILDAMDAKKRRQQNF
As to conditions: read-out: residual activity (%) MST2. The protocol: as §1, §2

The target of another data set is Lck (Homo sapiens, UniProt P06239). The note with it: read-out: residual activity (%) Lck. Here is the method: as §1, §2
The target in another data set is MNK2 (Homo sapiens, UniProt Q9HBH9). The note with it: read-out: residual activity (%) MNK2. The protocol: as §1, §2
In the next data set the target is MAPKAP-K2 (Homo sapiens, UniProt P49137). The note with it: read-out: residual activity (%) MAPKAP-K2. The protocol: as §1, §2
In a further data set the target is T3, CHK1 (Homo sapiens, UniProt O14757).
T3 sequence (O14757 1-476): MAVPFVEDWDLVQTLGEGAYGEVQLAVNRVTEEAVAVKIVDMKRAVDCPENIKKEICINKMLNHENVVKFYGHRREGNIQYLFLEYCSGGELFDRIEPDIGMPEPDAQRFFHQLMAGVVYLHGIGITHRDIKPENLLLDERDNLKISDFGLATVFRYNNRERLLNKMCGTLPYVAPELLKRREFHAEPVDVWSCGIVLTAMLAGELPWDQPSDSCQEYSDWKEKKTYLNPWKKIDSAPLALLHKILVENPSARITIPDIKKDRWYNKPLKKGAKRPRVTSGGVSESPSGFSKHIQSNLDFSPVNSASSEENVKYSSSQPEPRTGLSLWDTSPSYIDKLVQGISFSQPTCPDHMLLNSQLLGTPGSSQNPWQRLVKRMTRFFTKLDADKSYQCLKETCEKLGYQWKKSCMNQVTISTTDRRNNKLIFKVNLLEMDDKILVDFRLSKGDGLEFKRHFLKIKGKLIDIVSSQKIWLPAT
As to conditions: read-out: residual activity (%) CHK1. The protocol: as §1, §2

The next data set deals with CHK2 (Homo sapiens, UniProt O96017). The note with it: read-out: residual activity (%) CHK2. Here is the method: as §1, §2

Read-outs that look alike come from different tables or passages of the source.

Sequence of MAPKAP-K2 (P49137 whole entry, species assumed): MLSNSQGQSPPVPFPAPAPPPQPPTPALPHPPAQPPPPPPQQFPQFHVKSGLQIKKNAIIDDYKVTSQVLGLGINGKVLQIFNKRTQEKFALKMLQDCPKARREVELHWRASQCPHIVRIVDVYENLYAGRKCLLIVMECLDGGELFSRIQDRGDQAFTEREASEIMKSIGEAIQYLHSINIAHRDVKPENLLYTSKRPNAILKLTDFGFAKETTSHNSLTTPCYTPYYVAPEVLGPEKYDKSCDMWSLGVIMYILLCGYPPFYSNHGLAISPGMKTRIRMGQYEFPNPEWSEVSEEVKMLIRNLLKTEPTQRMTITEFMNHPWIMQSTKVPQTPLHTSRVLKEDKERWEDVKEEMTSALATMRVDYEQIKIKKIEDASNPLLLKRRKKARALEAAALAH
Sequence of MARK3 (P27448 whole entry, species assumed): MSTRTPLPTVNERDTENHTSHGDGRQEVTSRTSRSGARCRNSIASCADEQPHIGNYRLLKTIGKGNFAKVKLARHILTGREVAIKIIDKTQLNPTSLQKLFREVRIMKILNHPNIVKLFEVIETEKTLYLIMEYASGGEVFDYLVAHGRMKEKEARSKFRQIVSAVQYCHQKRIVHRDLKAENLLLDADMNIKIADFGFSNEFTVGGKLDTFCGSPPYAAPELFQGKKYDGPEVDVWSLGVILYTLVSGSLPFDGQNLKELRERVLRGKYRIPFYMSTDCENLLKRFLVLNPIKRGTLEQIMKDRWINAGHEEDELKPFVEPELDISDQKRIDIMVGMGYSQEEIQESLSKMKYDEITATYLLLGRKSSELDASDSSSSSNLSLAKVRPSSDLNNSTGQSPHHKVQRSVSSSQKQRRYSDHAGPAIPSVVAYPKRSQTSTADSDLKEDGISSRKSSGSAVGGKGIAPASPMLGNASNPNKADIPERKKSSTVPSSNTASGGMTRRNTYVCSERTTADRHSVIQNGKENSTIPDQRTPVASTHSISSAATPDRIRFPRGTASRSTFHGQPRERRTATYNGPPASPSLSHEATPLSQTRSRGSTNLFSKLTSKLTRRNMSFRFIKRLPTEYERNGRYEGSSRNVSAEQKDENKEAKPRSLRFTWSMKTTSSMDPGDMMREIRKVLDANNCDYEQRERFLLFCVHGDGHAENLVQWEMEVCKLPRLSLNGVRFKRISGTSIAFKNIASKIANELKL
Sequence of Lck (P06239 whole entry, species assumed): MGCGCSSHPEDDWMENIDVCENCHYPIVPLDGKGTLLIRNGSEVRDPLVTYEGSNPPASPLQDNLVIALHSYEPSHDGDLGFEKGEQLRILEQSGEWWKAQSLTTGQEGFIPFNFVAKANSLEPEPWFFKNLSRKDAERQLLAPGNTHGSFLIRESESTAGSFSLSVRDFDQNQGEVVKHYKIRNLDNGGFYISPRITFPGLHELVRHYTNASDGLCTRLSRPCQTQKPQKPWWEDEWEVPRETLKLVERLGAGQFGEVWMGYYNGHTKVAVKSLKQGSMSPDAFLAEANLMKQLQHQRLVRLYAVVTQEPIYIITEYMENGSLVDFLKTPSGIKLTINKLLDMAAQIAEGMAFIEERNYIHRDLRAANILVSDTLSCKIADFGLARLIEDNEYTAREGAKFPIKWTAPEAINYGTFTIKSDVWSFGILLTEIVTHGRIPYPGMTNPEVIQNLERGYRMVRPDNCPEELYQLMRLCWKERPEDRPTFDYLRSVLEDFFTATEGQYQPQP
Sequence of CHK2 (O96017 whole entry, species assumed): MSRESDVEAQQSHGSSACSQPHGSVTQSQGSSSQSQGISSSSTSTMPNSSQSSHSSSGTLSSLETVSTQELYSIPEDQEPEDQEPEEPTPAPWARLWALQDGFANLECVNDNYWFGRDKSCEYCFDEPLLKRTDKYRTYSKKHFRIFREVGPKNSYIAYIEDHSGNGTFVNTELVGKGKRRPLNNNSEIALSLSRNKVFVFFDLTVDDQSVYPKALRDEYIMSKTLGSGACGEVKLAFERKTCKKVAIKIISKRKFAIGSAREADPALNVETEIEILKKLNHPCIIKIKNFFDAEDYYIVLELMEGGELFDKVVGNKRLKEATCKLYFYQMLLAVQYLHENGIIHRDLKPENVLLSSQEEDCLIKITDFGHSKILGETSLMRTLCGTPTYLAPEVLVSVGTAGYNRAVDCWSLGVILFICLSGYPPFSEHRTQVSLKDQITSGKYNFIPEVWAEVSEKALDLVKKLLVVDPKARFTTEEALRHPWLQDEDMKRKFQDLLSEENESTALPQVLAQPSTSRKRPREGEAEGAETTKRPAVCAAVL
Sequence of MKK1 (Q02750 whole entry, species assumed): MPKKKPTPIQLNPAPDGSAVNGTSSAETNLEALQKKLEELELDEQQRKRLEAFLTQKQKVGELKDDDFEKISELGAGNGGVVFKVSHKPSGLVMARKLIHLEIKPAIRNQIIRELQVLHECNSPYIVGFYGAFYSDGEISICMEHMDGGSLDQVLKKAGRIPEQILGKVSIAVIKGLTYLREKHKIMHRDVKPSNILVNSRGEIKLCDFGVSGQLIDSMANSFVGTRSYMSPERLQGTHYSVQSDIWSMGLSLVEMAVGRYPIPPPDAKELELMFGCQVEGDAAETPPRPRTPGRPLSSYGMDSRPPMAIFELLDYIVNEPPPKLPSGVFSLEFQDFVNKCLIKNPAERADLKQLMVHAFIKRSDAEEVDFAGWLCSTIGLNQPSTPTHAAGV
Sequence of MNK2 (Q9HBH9 whole entry, species assumed): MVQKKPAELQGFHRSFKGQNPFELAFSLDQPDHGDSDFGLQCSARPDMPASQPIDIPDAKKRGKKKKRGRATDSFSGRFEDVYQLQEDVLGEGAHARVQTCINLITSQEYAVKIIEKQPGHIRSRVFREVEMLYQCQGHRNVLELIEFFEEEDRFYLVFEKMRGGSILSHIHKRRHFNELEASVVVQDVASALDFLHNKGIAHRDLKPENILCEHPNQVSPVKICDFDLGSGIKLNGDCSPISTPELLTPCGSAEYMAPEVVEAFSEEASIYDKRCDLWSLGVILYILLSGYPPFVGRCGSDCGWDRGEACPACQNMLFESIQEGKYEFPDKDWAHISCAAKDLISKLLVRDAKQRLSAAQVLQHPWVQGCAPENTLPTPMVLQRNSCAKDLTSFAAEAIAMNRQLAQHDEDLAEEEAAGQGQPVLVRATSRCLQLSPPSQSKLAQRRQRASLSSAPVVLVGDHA

As to `N=C(N)NCCC[C@@H](NC(=O)[C@@H](CCCNC(=N)N)NC(=O)[C@@H](CCCNC(=N)N)NC(=O)[C@@H](CCCNC(=N)N)NC(=O)[C@@H](CCCNC(=N)N)NC(=O)[C@@H](CCCNC(=N)N)NC(=O)CCCCCNC(=O)[C@H]1O[C@@H](n2cnc3c(N)ncnc32)[C@H](O)[C@@H]1O)C(N)=O` [Compound 5, AdcAhx(D-Arg)6-NH2], the remaining activity at 1 µM came out at 50% in the data set with ERK8; 77% with MKK1; 40% in the data set with MARK3; 77% with MST2; 70% with Lck; 99% with MNK2. Moreover, the remaining activity at 1 µM with MAPKAP-K2 was 85%; with CHK1 it was 16%; with CHK2, 14%.
In the case of `N=C(N)NCCC[C@@H](NC(=O)[C@@H](CCCNC(=N)N)NC(=O)[C@@H](CCCNC(=N)N)NC(=O)[C@@H](CCCNC(=N)N)NC(=O)[C@@H](CCCNC(=N)N)NC(=O)[C@@H](CCCNC(=N)N)NC(=O)CCCCCNCCNS(=O)(=O)c1cccc2cnccc12)C(N)=O` [Compound 26, H9-Hex(D-Arg)6-NH2], the remaining activity at 1 µM with ERK8 (inhibitor 1 μM, ATP 5 μM) worked out at 52%; with MKK1 (inhibitor 1 μM, ATP 5 μM), 84%; with MARK3 (inhibitor 1 μM, ATP 5 μM) it was 53%; with MST2 (inhibitor 1 μM, ATP 20 μM) it was 24%; with Lck (inhibitor 1 μM, ATP 50 μM), 88%; with MNK2 (inhibitor 1 μM, ATP 50 μM) it was 31%. Besides, the remaining activity at 1 µM turned out to be 80% in the data set with MAPKAP-K2 (inhibitor 1 μM, ATP 20 μM); 31% with CHK1 (inhibitor 1 μM, ATP 20 μM); 22% with CHK2 (inhibitor 1 μM, ATP 20 μM).
